Source: publication PMC11208175

Substrate: O=P(O)(O)O
Experiment: cells, lysate or membranes
Details: whole-cell transport in C. crescentus delta-pstS expressing pitA, 0.1-20 µM phosphate, 37 °C, labelled compound (33P tracer)

B1: PitA (Escherichia coli K-12) (protein)
chain: MLHLFAGLDLHTGLLLLLALAFVLFYEAINGFHDTANAVATVIYTRAMRSQLAVVMAAVFNFLGVLLGGLSVAYAIVHMLPTDLLLNMGSSHGLAMVFSMLLAAIIWNLGTWYFGLPASSSHTLIGAIIGIGLTNALMTGTSVVDALNIPKVLSIFGSLIVSPIVGLVFAGGLIFLLRRYWSGTKKRARIHLTPAEREKKDGKKKPPFWTRIALILSAIGVAFSHGANDGQKGIGLVMLVLIGVAPAGFVVNMNATGYEITRTRDAINNVEAYFEQHPALLKQATGADQLVPAPEAGATQPAEFHCHPSNTINALNRLKGMLTTDVESYDKLSLDQRSQMRRIMLCVSDTIDKVVKMPGVSADDQRLLKKLKSDMLSTIEYAPVWIIMAVALALGIGTMIGWRRVATTIGEKIGKKGMTYAQGMSAQMTAAVSIGLASYTGMPVSTTHVLSSSVAGTMVVDGGGLQRKTVTSILMAWVFTLPAAVLLSGGLYWLSLQFL
  Km: 1.9 µM
